The values that follow come from paper PMC8298264, “Function of cofactor Akirin2 in the regulation of gene expression in model human neutrophil-like HL60 cells” (Bioscience Reports, 2021).

For the experiment, the system named is human HL60 cells. As to the kind of experiment: SWATH-MS proteomics, differential protein representation, akirin2 KO vs WT HL60 cells. The experiment is classed as cell-based. Particulars: akirin2 KO vs WT HL60 cells; sheet "Under-represented in KO". The method in brief: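 First, proteins from wild-type and knockout cells are digested with trypsin by FASP. Next, pooled IDA runs generate a reference ion library. Then six samples of 5 µg each are acquired by data-independent SWATH, and protein areas are normalized to the summed area of all detected proteins.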

B1: sp¦Q9Y2X3¦NOP58_HUMAN (protein, UniProt Q9Y2X3 1-529, looked up)
Nucleolar protein 58: MLVLFETSVGYAIFKVLNEKKLQEVDSLWKEFETPEKANKIVKLKHFEKFQDTAEALAAFTALMEGKINKQLKKVLKKIVKEAHEPLAVADAKLGGVIKEKLNLSCIHSPVVNELMRGIRSQMDGLIPGVEPREMAAMCLGLAHSLSRYRLKFSADKVDTMIVQAISLLDDLDKELNNYIMRCREWYGWHFPELGKIISDNLTYCKCLQKVGDRKNYASAKLSELLPEEVEAEVKAAAEISMGTEVSEEDICNILHLCTQVIEISEYRTQLYEYLQNRMMAIAPNVTVMVGELVGARLIAHAGSLLNLAKHAASTVQILGAEKALFRALKSRRDTPKYGLIYHASLVGQTSPKHKGKISRMLAAKTVLAIRYDAFGEDSSSAMGVENRAKLEARLRTLEDRGIRKISGTGKALAKTEKYEHKSEVKTYDPSGDSTLPTCSKKRKIEQVDKEDEITEKKAKKAKIKVKVEEEEEEKVAEEEETSVKKKKKRGKKKHIKEEPLSEEEPCTSTAIASPEKKKKKKKKRENED
B1: the “Fold Change” value turned out to be 0.6507 and the “Log (Fold Change)” value was -0.1866.

B2: sp¦O95373¦IPO7_HUMAN (protein, UniProt O95373 1-1038, looked up)
Importin-7: MDPNTIIEALRGTMDPALREAAERQLNEAHKSLNFVSTLLQITMSEQLDLPVRQAGVIYLKNMITQYWPDRETAPGDISPYTIPEEDRHCIRENIVEAIIHSPELIRVQLTTCIHHIIKHDYPSRWTAIVDKIGFYLQSDNSACWLGILLCLYQLVKNYEYKKPEERSPLVAAMQHFLPVLKDRFIQLLSDQSDQSVLIQKQIFKIFYALVQYTLPLELINQQNLTEWIEILKTVVNRDVPNETLQVEEDDRPELPWWKCKKWALHILARLFERYGSPGNVSKEYNEFAEVFLKAFAVGVQQVLLKVLYQYKEKQYMAPRVLQQTLNYINQGVSHALTWKNLKPHIQGIIQDVIFPLMCYTDADEELWQEDPYEYIRMKFDVFEDFISPTTAAQTLLFTACSKRKEVLQKTMGFCYQILTEPNADPRKKDGALHMIGSLAEILLKKKIYKDQMEYMLQNHVFPLFSSELGYMRARACWVLHYFCEVKFKSDQNLQTALELTRRCLIDDREMPVKVEAAIALQVLISNQEKAKEYITPFIRPVMQALLHIIRETENDDLTNVIQKMICEYSEEVTPIAVEMTQHLAMTFNQVIQTGPDEEGSDDKAVTAMGILNTIDTLLSVVEDHKEITQQLEGICLQVIGTVLQQHVLEFYEEIFSLAHSLTCQQVSPQMWQLLPLVFEVFQQDGFDYFTDMMPLLHNYVTVDTDTLLSDTKYLEMIYSMCKKVLTGVAGEDAECHAAKLLEVIILQCKGRGIDQCIPLFVEAALERLTREVKTSELRTMCLQVAIAALYYNPHLLLNTLENLRFPNNVEPVTNHFITQWLNDVDCFLGLHDRKMCVLGLCALIDMEQIPQVLNQVSGQILPAFILLFNGLKRAYACHAEHENDSDDDDEAEDDDETEELGSDEDDIDEDGQEYLEILAKQAGEDGDDEDWEEDDAEETALEGYSTIIDDEDNPVDEYQIFKAIFQTIQNRNPVWYQALTHGLNEEQRKQLQDIATLADQRRAAHESKMIEKHGGYKFSAPVVPSSFNFGGPAPGMN
B2: the “Fold Change” value is listed as 0.28 and the “Log (Fold Change)” value is listed as -0.5528.

B3: sp¦P41252¦SYIC_HUMAN (protein, UniProt P41252 1-1262, looked up)
Isoleucine--tRNA ligase, …: MLQQVPENINFPAEEEKILEFWTEFNCFQECLKQSKHKPKFTFYDGPPFATGLPHYGHILAGTIKDIVTRYAHQSGFHVDRRFGWDCHGLPVEYEIDKTLGIRGPEDVAKMGITEYNNQCRAIVMRYSAEWKSTVSRLGRWIDFDNDYKTLYPQFMESVWWVFKQLYDKGLVYRGVKVMPFSTACNTPLSNFESHQNYKDVQDPSVFVTFPLEEDETVSLVAWTTTPWTLPSNLAVCVNPEMQYVKIKDVARGRLLILMEARLSALYKLESDYEILERFPGAYLKGKKYRPLFDYFLKCKENGAFTVLVDNYVKEEEGTGVVHQAPYFGAEDYRVCMDFNIIRKDSLPVCPVDASGCFTTEVTDFAGQYVKDADKSIIRTLKEQGRLLVATTFTHSYPFCWRSDTPLIYKAVPSWFVRVENMVDQLLRNNDLCYWVPELVREKRFGNWLKDARDWTISRNRYWGTPIPLWVSDDFEEVVCIGSVAELEELSGAKISDLHRESVDHLTIPSRCGKGSLHRISEVFDCWFESGSMPYAQVHYPFENKREFEDAFPADFIAEGIDQTRGWFYTLLVLATALFGQPPFKNVIVNGLVLASDGQKMSKRKKNYPDPVSIIQKYGADALRLYLINSPVVRAENLRFKEEGVRDVLKDVLLPWYNAYRFLIQNVLRLQKEEEIEFLYNENTVRESPNITDRWILSFMQSLIGFFETEMAAYRLYTVVPRLVKFVDILTNWYVRMNRRRLKGENGMEDCVMALETLFSVLLSLCRLMAPYTPFLTELMYQNLKVLIDPVSVQDKDTLSIHYLMLPRVREELIDKKTESAVSQMQSVIELGRVIRDRKTIPIKYPLKEIVVIHQDPEALKDIKSLEKYIIEELNVRKVTLSTDKNKYGIRLRAEPDHMVLGKRLKGAFKAVMTSIKQLSSEELEQFQKTGTIVVEGHELHDEDIRLMYTFDQATGGTAQFEAHSDAQALVLLDVTPDQSMVDEGMAREVINRIQKLRKKCNLVPTDEITVYYKAKSEGTYLNSVIESHTEFIFTTIKAPLKPYPVSPSDKVLIQEKTQLKGSELEITLTRGSSLPGPACAYVNLNICANGSEQGGVLLLENPKGDNRLDLLKLKSVVTSIFGVKNTELAVFHDETEIQNQTDLLSLSGKTLCVTAGSAPSLINSSSTLLCQYINLQLLNAKPQECLMGTVGTLLLENPLGQNGLTHQGLLYEAAKVFGLRSRKLKLFLNETQTQEITEDIPVKTLNMKTVYVSVLPTTADF
As for B3, the “Fold Change” value came to 0.645 and the “Log (Fold Change)” value was -0.1904.

B4: sp¦Q13637¦RAB32_HUMAN (protein, UniProt Q13637 2-225, looked up)
Ras-related protein Rab-32: AGGGAGDPGLGAAAAPAPETREHLFKVLVIGELGVGKTSIIKRYVHQLFSQHYRATIGVDFALKVLNWDSRTLVRLQLWDIAGQERFGNMTRVYYKEAVGAFVVFDISRSSTFEAVLKWKSDLDSKVHLPNGSPIPAVLLANKCDQNKDSSQSPSQVDQFCKEHGFAGWFETSAKDNINIEEAARFLVEKILVNHQSFPNEENDVDKIKLDQETLRAENKSQCC
Consider B4, for which the “Fold Change” value came out at 0.6519 and the “Log (Fold Change)” value was -0.1858.

B5: sp¦Q92973¦TNPO1_HUMAN (protein, UniProt Q92973 1-898, looked up)
Transportin-1: MVWDRQTKMEYEWKPDEQGLQQILQLLKESQSPDTTIQRTVQQKLEQLNQYPDFNNYLIFVLTKLKSEDEPTRSLSGLILKNNVKAHFQNFPNGVTDFIKSECLNNIGDSSPLIRATVGILITTIASKGELQNWPDLLPKLCSLLDSEDYNTCEGAFGALQKICEDSAEILDSDVLDRPLNIMIPKFLQFFKHSSPKIRSHAVACVNQFIISRTQALMLHIDSFIENLFALAGDEEPEVRKNVCRALVMLLEVRMDRLLPHMHNIVEYMLQRTQDQDENVALEACEFWLTLAEQPICKDVLVRHLPKLIPVLVNGMKYSDIDIILLKGDVEEDETIPDSEQDIRPRFHRSRTVAQQHDEDGIEEEDDDDDEIDDDDTISDWNLRKCSAAALDVLANVYRDELLPHILPLLKELLFHHEWVVKESGILVLGAIAEGCMQGMIPYLPELIPHLIQCLSDKKALVRSITCWTLSRYAHWVVSQPPDTYLKPLMTELLKRILDSNKRVQEAACSAFATLEEEACTELVPYLAYILDTLVFAFSKYQHKNLLILYDAIGTLADSVGHHLNKPEYIQMLMPPLIQKWNMLKDEDKDLFPLLECLSSVATALQSGFLPYCEPVYQRCVNLVQKTLAQAMLNNAQPDQYEAPDKDFMIVALDLLSGLAEGLGGNIEQLVARSNILTLMYQCMQDKMPEVRQSSFALLGDLTKACFQHVKPCIADFMPILGTNLNPEFISVCNNATWAIGEISIQMGIEMQPYIPMVLHQLVEIINRPNTPKTLLENTAITIGRLGYVCPQEVAPMLQQFIRPWCTSLRNIRDNEEKDSAFRGICTMISVNPSGVIQDFIFFCDAVASWINPKDDLRDMFCKILHGFKNQVGDENWRRFSDQFPLPLKERLAAFYGV
For B5, the “Fold Change” value is on record as 0.6517 and the “Log (Fold Change)” value is on record as -0.186.
